Measurements published in the supplement of paper PMC10567573.

B1: CCDC6 (parent)
chain: FTPPTSLTRAGMSYYNSPGLHVQH

Variants of: B1
Experiment: protein stability index of a GFP-peptide fusion (GPS, HEK-293T) (PSI 1-6); higher = more stable
Conditions: c terminus: a fixed tail appended
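Also: lentivirally expressed fusions sorted by FACS into six bins by GFP to DsRed ratio, PSI derived from sequencing read proportions per bin multiplied by bin number.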

Protein stability index, by site and new letter:
Y14: V 1.32 | L 1.44 | G 2.31 | D 3.09 | A 2.09 | S 2.46 | I 1.64 | R 3.18 | N 2.6 | C 1.93 | T 2.33 | K 2.66 | E 2.73 | W 1.67 | F 1.94 | H 2.42 | P 1.88 | Q 2.65 | M 1.7
Y15: L 2.22 | W 3.27 | M 1.92 | I 2.18 | A 2.24 | H 2.11 | G 2.37 | K 2.33 | E 2.35 | F 2.5 | C 1.99 | P 2.57 | R 2.33 | D 2.58 | V 2.89 | T 2.51 | Q 2.45 | S 2.21 | N 2.23
L7: P 2.33 | T 1.89 | S 1.7 | V 1.56 | N 1.7 | W 2.33 | R 2.04 | Q 2.38 | Y 2.39
M12: Y 1.71 | R 1.79 | C 1.68 | W 2.4 | F 1.58 | S 2 | T 2.16 | G 1.57 | D 2.19 | P 2.56 | V 1.99 | Q 1.73 | N 2.12 | L 2.21 | K 2.2 | A 1.84 | E 2.29 | H 2.33 | I 2.02
T8: C 2.73 | H 1.56 | W 1.78 | V 1.85 | I 2.14 | P 2.46 | L 1.78 | A 1.76 | M 1.92 | S 1.83 | F 2.56 | D 1.82 | E 1.41 | K 1.46 | G 2.06 | Y 1.5 | N 2.06 | Q 2.53
